Experimental data reported in patent US20120034651.

Experiments:
[1] = test system: T1, peptide having repetitive sequence of 11-23 from 10-24 (NH2-VTDHPDRLWAWEK-RRR-VTDHPDRLWAWEK-COOH)
T1 sequence: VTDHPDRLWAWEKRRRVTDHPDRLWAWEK

[2] = test system: T2, 10/24 peptide (amino acid residue 10-24 of human TCL1, NH2-AVTDHPDRLWAWEKF-COOH)
T2 sequence: AVTDHPDRLWAWEKF

[3] = target: D16G TCL1 (UniProt P56279)
Sequence of D16G TCL1 (P56279 whole entry D16G): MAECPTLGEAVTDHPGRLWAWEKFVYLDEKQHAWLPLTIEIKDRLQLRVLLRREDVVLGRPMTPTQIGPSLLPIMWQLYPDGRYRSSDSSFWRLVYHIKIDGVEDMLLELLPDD

Substance | In vitro Akt kinase assay, GSK phosphorylation [1] | In vitro Akt kinase assay, GSK phosphorylation by western blotting, peptide at 200 µM [2] | Akt kinase activity in an in vitro kinase assay (GSK-3a phosphorylation, Akt Ser-473 phosphorylation) [3]
Recombinant Akt protein extracted from mammalian cells | The similar inhibition effect on Akt kinase activity was also identified | the 10/24 peptide was effectively inhibited the phosphorylation potency for GSK peptide of Akt | 
Akt (in vitro kinase assay of Example 1) |  |  | D16G TCL1 did not affect the Akt kinase activity even though in a dose escalation experiment
